Laboratory results: patent publication US20260207704A1, “STAPLED PEPTIDES AND METHODS THEREOF” (priority 2022, published 2026)
*1 amine or outer side, *2 acyl side, *3 side chain or, on linkers, in order; H or OH if unused. Bridges are numbered along the chain shown (N, C = ends). Primed or numbered codes have the meaning given here. [ ]: non-standard residue; d: D form. PyrS2(6) = (S)-3-amino-1-((pent-4-en-1-yloxy)carbonyl)pyrrolidine-3-carboxylic acid, stapled with another olefin-containing amino acid residue through the olefin group, O=C(OCCCC=[*:3])N1CC[C@@](N[*:1])(C(=O)[*:2])C1; B5(4) = 2-amino-2-(pent-4-en-1-yl)hept-6-enoic acid, stapled through each of its two olefin groups with other olefin-containing amino acid residues, O=C(C(CCCC=[*:3])(CCCC=[*:4])N[*:1])[*:2]; PyrS2″ = (S)-3-amino-1-((pent-4-en-1-yloxy)carbonyl)pyrrolidine-3-carboxylic acid (olefin stapling residue), C=CCCCOC(=O)N1CC[C@@](N[*:1])(C(=O)[*:2])C1; PyrS2(3) = (S)-3-amino-1-((pent-4-en-1-yloxy)carbonyl)pyrrolidine-3-carboxylic acid, olefin residue, C=CCCCOC(=O)N1CC[C@@](N[*:1])(C(=O)[*:2])C1; B5(3) = 2-amino-2-(pent-4-en-1-yl)hept-6-enoic acid, two olefin arms, C=CCCCC(CCCC=C)(N[*:1])C(=O)[*:2]; 2F3MeF(3) = aromatic amino acid residue, Cc1cccc(C[C@H](N[*:1])C(=O)[*:2])c1F; Phe(3-COOH) = N[C@@H](Cc1cccc(C(=O)O)c1)C(=O)O; 2F3MeF = Cc1cccc(C[C@H](N[*:1])C(=O)[*:2])c1F; Phe(2-Cl) = N[C@@H](Cc1ccccc1Cl)C(=O)O; Bta = N[C@@H](Cc1csc2ccccc12)C(=O)O; αAllylPro = C=CC[C@@]1(C(=O)O)CCCN1; BztA = aromatic amino acid residue; 4mampiperidine = not defined here; tBuAla = CC(C)(C)C[C@H](N)C(=O)O; Biphen33COOH = not defined here; 3Thi = N[C@@H](Cc1ccsc1)C(=O)O; Cha = N[C@@H](CC1CCCCC1)C(=O)O; PyrS2(4) = not defined here; hSer = N[C@@H](CCO)C(=O)O; TfeGA = not defined here; GlnR = not defined here; PL3 = not defined here; B5 = not defined here

Target: beta-catenin (human)
Assay: cell-based or functional assay
Conditions: not given

beta-catenin (human), sequence (B6V8E6 146-665 limits assumed): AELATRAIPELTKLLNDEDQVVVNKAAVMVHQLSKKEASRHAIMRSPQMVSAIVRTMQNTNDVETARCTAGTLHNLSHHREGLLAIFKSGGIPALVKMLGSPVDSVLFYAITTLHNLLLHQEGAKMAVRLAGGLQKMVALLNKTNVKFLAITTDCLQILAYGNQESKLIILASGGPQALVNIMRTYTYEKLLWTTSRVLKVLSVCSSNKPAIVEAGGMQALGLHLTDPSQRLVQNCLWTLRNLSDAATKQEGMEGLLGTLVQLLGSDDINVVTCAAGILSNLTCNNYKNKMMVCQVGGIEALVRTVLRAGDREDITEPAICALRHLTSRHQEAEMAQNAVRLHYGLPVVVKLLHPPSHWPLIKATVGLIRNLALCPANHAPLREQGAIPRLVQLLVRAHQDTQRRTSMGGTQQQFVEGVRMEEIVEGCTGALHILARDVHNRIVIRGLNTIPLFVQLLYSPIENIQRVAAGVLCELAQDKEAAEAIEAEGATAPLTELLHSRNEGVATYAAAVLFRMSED

NanoBRET Abs IC50 | NanoBRET Abs IC50 (bin >3.0 uM) | Molecule
> 10000 nM | – | Ac-[αAllylPro]D[tBuAla][B5(4)]D[TfeGA]FAFK[PyrS2″][2F3MeF][Bta][GlnR]A-NH2 (bridge 10-14; not fully specified (bridges); reading uncertain; also: Lys*3 and GlnR*3 marked *3) [I-123]
– | < 10000 nM | Ac-[αAllylPro]D[tBuAla][B5(4)]D[TfeGA]AAFK[PyrS2″][2F3MeF][Bta][GlnR]L-NH2 (bridge 10-14; not fully specified (bridges); reading uncertain; also: Lys*3 and GlnR*3 marked *3) [I-128]

Target: beta-catenin (human)
Assay: fluorescence polarization; bin >50 nM
Conditions: not given

IC50 | Molecule
< 200 nM | Ac-[αAllylPro]D[tBuAla][B5(4)]D[TfeGA]FAFK[PyrS2″][2F3MeF][Bta][GlnR]A-NH2 (bridge 10-14; not fully specified (bridges); reading uncertain; also: Lys*3 and GlnR*3 marked *3) [I-123]
< 200 nM | Ac-[αAllylPro]D[tBuAla][B5(4)]D[TfeGA]AAFK[PyrS2″][2F3MeF][Bta][GlnR]L-NH2 (bridge 10-14; not fully specified (bridges); reading uncertain; also: Lys*3 and GlnR*3 marked *3) [I-128]
< 200 nM | Ac-[PL3][hSer][tBuAla][B5]D[Phe(3-COOH)]QAFK[PyrS2″][3Thi][BztA][GlnR]A-NH2 (staple 1-4 (inferred); bridge 10-14; not fully specified (residue 10, bridges); printed as Ac-PL3-Hse-Npg-B5-Asp-3COOHF-Gln-Ala-Phe-Lys*3-PyrS2-3Thi-BztA-GlnR*3-Ala-NH2; reading uncertain; also: Lys10 and GlnR14 marked *3) [I-89]
< 200 nM | Ac-[αAllylPro]D[tBuAla][B5(4)]D[Phe(3-COOH)]KAFL[PyrS2(6)][3Thi][Bta]K-NH2 (not fully specified (residues 6, 7, bridges); printed as Ac-PL3-Asp-Npg-B5-Asp-3COOHF-[Biphen33COOH]-Lys-Ala-Phe-Leu-PyrS2-3Thi-BztA-Lys-NH2) [I-49]
< 200 nM | Ac-[PL3][hSer][tBuAla][B5]D[Phe(3-COOH)]SAFK[PyrS2″][3Thi][BztA][GlnR]A-NH2 (staple 1-4 (inferred); bridge 10-14; not fully specified (residue 10, bridges); printed as Ac-PL3-Hse-Npg-B5-Asp-3COOHF-Ser-Ala-Phe-Lys*3-PyrS2-3Thi-BztA-GlnR*3-Ala-NH2; reading uncertain; also: Lys10 and GlnR14 marked *3) [I-85]
< 200 nM | Ac-[αAllylPro]D[tBuAla][B5(4)]D[Phe(3-COOH)]K(isophthalate)AFL[PyrS2(6)][Phe(2-Cl)][Bta]K-NH2 (not fully specified (residue 6, bridges); printed as Ac-PL3-Asp-Npg-B5-Asp-3COOHF-[isophthalate]-Lys-Ala-Phe-Leu-PyrS2-2ClF-BztA-Lys-NH2; also: isophthalate on Lys7 side chain is a staple, partner not given here) [I-50]
< 200 nM | Ac-[PL3]N[tBuAla][B5]D[TfeGA]AAFK[PyrS2(4)][2F3MeF][Bta][GlnR]A-NH2 (staple 1-4; bridge 10-14; reading uncertain; also: PyrS2 tied into a staple, partner not placed) [I-114]
< 200 nM | Ac-[PL3]D[tBuAla][B5]D[Phe(3-COOH)][Cha]AFK[PyrS2(4)][2F3MeF][Bta][GlnR]L-NH2 (staple 1-4; bridge 10-14; reading uncertain; also: PyrS2 tied into a staple, partner not placed, printed as Ac-PL3-Asp-Npg-B5-Asp-3COOHF-Cha-Ala-Phe-Lys*3-PyrS2-2F3MeF-BztA-GlnR*3-Leu-NH2) [I-110]
< 200 nM | Ac-[αAllylPro]D[tBuAla][B5(4)]D[Phe(3-COOH)][GlnR]AFL[PyrS2″][2F3MeF(3)][BztA][GlnR](4mampiperidine)A-NH2 (staple 1-4 (inferred); not fully specified (bridges); printed as Ac-PL3-Asp-Npg-B5-Asp-3COOHF-GlnR-Ala-Phe-Leu-PyrS2-2F3MeF-BztA-[4mampiperidine]GlnR-Ala-NH2; reading uncertain) [I-95]
< 200 nM | Ac-[αAllylPro]D[tBuAla][B5(3)]D[Phe(3-COOH)]K(diphenate)AFL[PyrS2(3)][Phe(2-Cl)][Bta]K-NH2 (not fully specified (residue 6, bridges); printed as Ac-PL3-Asp-Npg-B5-Asp-3COOHF-[diphenate]Lys-Ala-Phe-Leu-PyrS2-2ClF-BztA-Lys-NH2) [I-53]
< 200 nM | Ac-[PL3]D[tBuAla][B5]N[Phe(3-COOH)]QAFK[PyrS2″][3Thi][BztA][GlnR]A-NH2 (staple 1-4 (inferred); bridge 10-14; not fully specified (residue 10, bridges); printed as Ac-PL3-Asp-Npg-B5-Asn-3COOHF-Gln-Ala-Phe-Lys*3-PyrS2-3Thi-BztA-GlnR*3-Ala-NH2; reading uncertain; also: Lys10 and GlnR14 marked *3) [I-90]
< 200 nM | Ac-[PL3]D[tBuAla][B5]D[Phe(3-COOH)][Cha]AFK[PyrS2(4)][2F3MeF][Bta][GlnR]L-NH2 (staple 1-4; bridge 10-14; reading uncertain; also: PyrS2 tied into a staple, partner not placed, printed as Ac-PL3-Asp-Npg-B5-Asp-3COOHF-Cha-Ala-Phe-Lys*3-PyrS2-2F3MeF-BztA-GlnR*3-Leu-NH2) [I-111]
< 200 nM | Ac-[αAllylPro]D[tBuAla][B5(3)]D[Phe(3-COOH)]K(Biphen33COOH)AFL[PyrS2(3)][Phe(2-Cl)][Bta]K-NH2 (not fully specified (residue 6, bridges); printed as Ac-PL3-Asp-Npg-B5-Asp-3COOHF-[Biphen33COOH]Lys-Ala-Phe-Leu-PyrS2-2ClF-BztA-Lys-NH2; reading uncertain) [I-54]
< 200 nM | Ac-[PL3][hSer][tBuAla][B5]D[Phe(3-COOH)]AAFK[PyrS2″][3Thi][BztA][GlnR]A-NH2 (staple 1-4 (inferred); bridge 10-14; not fully specified (residue 10, bridges); printed as Ac-PL3-Hse-Npg-B5-Asp-3COOHF-Ala-Ala-Phe-Lys*3-PyrS2-3Thi-BztA-GlnR*3-Ala-NH2; reading uncertain) [I-81]
< 200 nM | Ac-[PL3]D[tBuAla][B5]N[Phe(3-COOH)]SAFK[PyrS2″][3Thi][BztA][GlnR]A-NH2 (staple 1-4 (inferred); bridge 10-14; not fully specified (residue 10, bridges); printed as Ac-PL3-Asp-Npg-B5-Asn-3COOHF-Ser-Ala-Phe-Lys*3-PyrS2-3Thi-BztA-GlnR*3-Ala-NH2; reading uncertain; also: Lys10 and GlnR14 marked *3) [I-86]
< 200 nM | Ac-[PL3]D[tBuAla][B5]D[Phe(3-COOH)][tBuAla]AFK[PyrS2(4)][2F3MeF][Bta][GlnR]L-NH2 (staple 1-4; bridge 10-14; reading uncertain; also: PyrS2 tied into a staple, partner not placed, printed as Ac-PL3-Asp-Npg-B5-Asp-3COOHF-Npg-Ala-Phe-Lys*3-PyrS2-2F3MeF-BztA-GlnR*3-Leu-NH2) [I-109]

Test system: DLD1 reporter
Assay: reporter assay (DLD1 reporter assay)
Type: cell-based
Conditions: read-out: DLD1 4% Abs IC50; DLD1 reporter, 4%
Excerpt: Various technologies can be utilized for characterizing and/or assessing provided technologies (e.g., agents (e.g., various peptides), compositions, methods, etc.) in accordance with the present disclosure. As described herein, in some embodiments, a useful technology is or comprises fluorescence polarization. In some embodiments, a useful technology assesses LogP or LogD. In some embodiments, a useful technology is or comprises a CHI LogD assay. In some embodiments, a useful technology assesses solubility. In some embodiments, a useful technology is or comprises NanoBRET. In some embodiments, a useful technology is or comprises a reporter assay (e.g., DLD1 reporter assay). In some embodiments, a useful technology is or comprises alphascreen. Certain useful protocols are described in the Examples. Those skilled in the art appreciate that suitable adjustments may be made to such protocols, e.g., according to specific conditions, agents, purposes, etc.
Various technologies can be utilized to assess technologies of the present disclosure. For example, in some embodiments, solubility, LogD, interactions with targets, etc. of various agents such as stapled peptides were assessed using technologies described in WO 2022/261257 (e.g., those in its Examples). In some embodiments, solubility, shake flask LogD, and binding to beta-catenin were assessed. In some embodiments, an assay for assessing interactions, e.g., with beta-catenin, was fluorescence polarization as described in WO 2022/261257. In some embodiments, an assay was Nano-BRET target engagement assay that assessed beta-catenin/TCF4 engagement as described in WO 2022/261257. In some embodiments, an assay was a reporter assay as reported in Example 4 of WO 2022/261257. In some embodiments, an assay was a COLO320DM proliferation assay as reported in Example 4 of WO 2022/261257.

Molecule | IC50
CC(=O)N1CCC[C@]12CC=CCCCC1(CCCC=CCCCOC(=O)N3CC[C@@]4(C3)NC(=O)[C@H](CCCCn3cc(nn3)C[C@@H](C(=O)N[C@@H](C)C(N)=O)NC(=O)[C@H](Cc3csc5ccccc35)NC(=O)[C@H](Cc3ccsc3)NC4=O)NC(=O)[C@H](Cc3ccccc3)NC(=O)[C@H](C)NC(=O)[C@H](C)NC(=O)[C@H](Cc3cccc(C(=O)O)c3)NC(=O)[C@H](CC(=O)O)NC1=O)NC(=O)[C@H](CC(C)(C)C)NC(=O)[C@H](CC(=O)O)NC2=O (stereo partly drawn) [I-337, Ac-PL3-Asp-Npg-B5-Asp-3COOHF-Ala-Ala-Phe-TriAzLys*3-PyrS2-3Thi-BztA-sAla*3-Ala-NH2] | ≤ 1000 nM
